Experimental data: the RNAGym collection of RNA variant scans (doi:10.7554/elife.80360)

B1: Twister Ribozyme (parent)
chain: AACACUGCCAAUGCCGGUCCCAAGCCCGGAUAAAAGUGGAGGGGGCGG

Variants of: B1
Assay: self-cleavage, relative activity (ratio to wild type); higher = more cleavage; co-transcriptional

Going from C14U C26A to C14U C26G, the self-cleavage falls from 0.497 to 0.235.

First: G16C G44U
Second: G16C G44A
The self-cleavage of the first is higher: 0.81 for the first, 0.803 for the second.

Going from G16C G44C to C15A G41U, the self-cleavage falls from 0.649 to 0.177.

Going from G16C A22U to G16A G44C, the self-cleavage rises from 0.21 to 0.871.

Compared with G16C G38U, G16C G38A is higher in self-cleavage: 0.535 for the first, 0.676 for the second.

Going from C15G G38U to C15G G38C, the self-cleavage falls from 0.0777 to 0.0527.

Going from C14U C19U to C14U C19A, the self-cleavage falls from 1.14 to 0.429.

First: C15A G42A
Second: C15G A40U
The self-cleavage of the first is higher: 0.156 for the first, 0.0313 for the second.

First: G16A A34G
Second: G16A A34C
The self-cleavage of the first is higher: 0.574 for the first, 0.174 for the second.

Going from G16C C46U to G16C A30C, the self-cleavage falls from 0.78 to 0.363.

First: G16C G41A
Second: C14U G28U
The self-cleavage of the first is lower: 0.143 for the first, 1.08 for the second.

Going from G16C G36A to C14U A22U, the self-cleavage rises from 0.188 to 0.848.

First: G16A G28U
Second: C14U A35U
The self-cleavage of the first is lower: 0.607 for the first, 1.03 for the second.

Going from C14U A35G to C14U A35C, the self-cleavage rises from 0.917 to 1.05.

Going from G16C C19G to C15G A23C, the self-cleavage rises from 0.1 to 0.137.

First: C15G A23U
Second: C15G C19U
The self-cleavage of the first is lower: 0.06 for the first, 0.0895 for the second.

Going from C15A G29C to C15A G29U, the self-cleavage rises from 0.156 to 0.607.

First: G16A C26A
Second: G16A C26U
The self-cleavage of the first is higher: 0.437 for the first, 0.107 for the second.

Going from G16U G44A to G16C G29C, the self-cleavage falls from 1.01 to 0.117.

Compared with G16C G29A, G16A U37C is higher in self-cleavage: 0.222 for the first, 0.335 for the second.

Compared with G16A U37A, C15G A35C is lower in self-cleavage: 0.457 for the first, 0.123 for the second.

Going from C15G A35G to G16C G43U, the self-cleavage rises from 0.0859 to 0.11.

Compared with G16C G43C, C15A G44C is higher in self-cleavage: 0.161 for the first, 0.57 for the second.

Going from C15A G44U to C15A G44A, the self-cleavage rises from 0.661 to 0.79.

Going from G16C U37G to C15A C26U, the self-cleavage falls from 0.134 to 0.0725.

Compared with C15U A23G, C15U A23C is lower in self-cleavage: 0.297 for the first, 0.134 for the second.

Going from C14U G45U to C14U G45C, the self-cleavage falls from 0.964 to 0.713.

First: C14U G45A
Second: C15U C27A
The self-cleavage of the first is higher: 0.999 for the first, 0.105 for the second.

First: C15U C27G
Second: C15G C26G
The self-cleavage of the first is higher: 0.0731 for the first, 0.0537 for the second.

First: C15U A22C
Second: C15U A22U
The self-cleavage of the first is higher: 0.932 for the first, 0.703 for the second.

Compared with C14U U37C, C15U G28C is higher in self-cleavage: 0.602 for the first, 0.988 for the second.

Going from G16C C25U to G16C C25G, the self-cleavage falls from 0.188 to 0.0947.

First: C15A G28C
Second: C15A G28U
The self-cleavage of the first is higher: 0.757 for the first, 0.736 for the second.

First: G16U A32C
Second: C14U A40U
The self-cleavage of the first is higher: 1.1 for the first, 0.191 for the second.

Compared with C14U A40C, G16U C19U is higher in self-cleavage: 0.256 for the first, 0.697 for the second.

Going from G16U C19G to G16U C19A, the self-cleavage falls from 0.342 to 0.284.

First: G16C G24U
Second: C15G G28A
The self-cleavage of the first is lower: 0.0773 for the first, 0.624 for the second.

Compared with C15G G28C, C15A C46U is higher in self-cleavage: 0.599 for the first, 0.623 for the second.

Compared with C15A C46G, G16A A33G is higher in self-cleavage: 0.525 for the first, 0.892 for the second.

First: C15G
Second: C15A
The self-cleavage of the first is lower: 0.101 for the first, 0.801 for the second.

Going from C15U to G16A G24A, the self-cleavage falls from 0.975 to 0.0954.

Compared with C15G G47C, C15G G47A is lower in self-cleavage: 0.0669 for the first, 0.0633 for the second.

Going from C15G G47U to C15G G48C, the self-cleavage rises from 0.0543 to 0.0718.

Going from C15G G39A to G16C G17A, the self-cleavage rises from 0.0759 to 0.124.

First: C15A A33C
Second: G16U G38C
The self-cleavage of the first is lower: 0.538 for the first, 1.02 for the second.

Going from G16U G38A to C15A C21A, the self-cleavage falls from 0.935 to 0.133.

First: C15A C21U
Second: C14U C25U
The self-cleavage of the first is lower: 0.0997 for the first, 0.909 for the second.

Compared with C14U C25A, C15A C25G is lower in self-cleavage: 0.27 for the first, 0.192 for the second.

Compared with C14U A32U, C15A G39C is lower in self-cleavage: 1.04 for the first, 0.124 for the second.

Going from C15A G39U to C15U C20A, the self-cleavage rises from 0.172 to 0.176.

Going from C15U C20G to G16A G42A, the self-cleavage rises from 0.135 to 0.358.

Compared with G16A G42U, C15G G17A is higher in self-cleavage: 0.197 for the first, 0.326 for the second.

Compared with C15G G17U, C15G G17C is lower in self-cleavage: 0.319 for the first, 0.157 for the second.

Going from C15U G24U to C15G G29A, the self-cleavage falls from 0.122 to 0.104.

Going from C15G G29C to C15A U31C, the self-cleavage rises from 0.0981 to 0.718.

First: C15G G42C
Second: G16A A30G
The self-cleavage of the first is lower: 0.0975 for the first, 0.958 for the second.

Compared with G16A A30C, G16A A32U is higher in self-cleavage: 0.91 for the first, 0.919 for the second.

First: G16A A32G
Second: C15U C19A
The self-cleavage of the first is higher: 0.888 for the first, 0.228 for the second.

Going from G16C A35U to G16C A35G, the self-cleavage falls from 0.577 to 0.483.

Compared with C15A A22U, C15A A22G is lower in self-cleavage: 0.24 for the first, 0.141 for the second.

Compared with G16C U31A, G16C U31C is lower in self-cleavage: 0.657 for the first, 0.429 for the second.

Going from C15U A40U to C15U A40C, the self-cleavage falls from 0.15 to 0.148.

Going from C15U A40G to G16U A34C, the self-cleavage falls from 0.162 to 0.111.

Going from G16U A34U to G16U A34G, the self-cleavage falls from 0.577 to 0.396.

Compared with G16C C26U, G16C C26G is lower in self-cleavage: 0.171 for the first, 0.0968 for the second.

First: C15G A32C
Second: C14U C46A
The self-cleavage of the first is lower: 0.112 for the first, 1.05 for the second.

First: G16U G24C
Second: G16U C25U
The self-cleavage of the first is lower: 0.118 for the first, 0.809 for the second.

First: G16A C27U
Second: G16A C27A
The self-cleavage of the first is higher: 1.17 for the first, 0.858 for the second.

Compared with C15U C26G, C15U C26U is higher in self-cleavage: 0.0693 for the first, 0.117 for the second.

Compared with C14U, C15U G17C is lower in self-cleavage: 1.1 for the first, 0.0992 for the second.

Compared with C15G C20G, C15G C20U is lower in self-cleavage: 0.0898 for the first, 0.0686 for the second.

Going from C15G G45U to C15G G45C, the self-cleavage falls from 0.133 to 0.0924.

First: C15G G45A
Second: C15G A34G
The self-cleavage of the first is higher: 0.113 for the first, 0.103 for the second.

Going from C15G A34U to C15U G39U, the self-cleavage rises from 0.109 to 0.27.

Going from G16C A23U to G16C A23G, the self-cleavage rises from 0.0704 to 0.092.

Going from C15G U31A to C14U A34G, the self-cleavage rises from 0.186 to 0.885.

Compared with C14U G36A, G16C G48U is lower in self-cleavage: 0.789 for the first, 0.414 for the second.

First: G16C G48A
Second: G16C G48C
The self-cleavage of the first is lower: 0.473 for the first, 0.709 for the second.

Going from G16C C21A to C15G G43U, the self-cleavage rises from 0.0849 to 0.104.

Compared with C15G G43C, C15U G43A is higher in self-cleavage: 0.0538 for the first, 0.225 for the second.

Going from C15U G43C to G16U A30G, the self-cleavage rises from 0.125 to 0.761.

Going from G16A G29U to G16A G29C, the self-cleavage falls from 0.663 to 0.339.

Going from G16A C21A to C15G A30U, the self-cleavage rises from 0.104 to 0.108.

In the case of G16U C27G, the self-cleavage is reported as 0.941.
